The values that follow are results of earlier work, collected in patent US10159715B2, “Method for treating diabetes comprising long-acting insulin analogue conjugate and long-acting insulinotropic peptide conjugate” (HANMI PHARM. CO., LTD., priority 2014, dated 2018).

The conditions of data set [1]: in vivo.
Data set [2] concerns type 2 diabetes-induced rodent model.

For the substance “GLP-1: incretin hormone secreted by L-cells of the ileum and colon; insulinotropic peptide”, in data set [1], the half-life in blood result is reported as “less than 2 minutes”. For the same substance, in data set [2], the “growth and differentiation of the beta cells / beta cell mass” value is “increasing the beta cell mass”.
